Results: patent publication US20220324939A1 (Regeneron, published 2022)

What was measured:
[1] = molecular target: T1, soluble HLA-A2 MAGE-A8 (…) tetramer (human); assay: flow cytometry, HLA-A2 MAGE-A8 (…) tetramer staining of CHO cells transfected with the TCR
T1 construct: Bought tetramer reagent; also called MAGE-A8/HLA tetramer reagent; HLA-A02:01 MAGE-A8 tetramer
Description: (§1) Samples were then analyzed on an LSRFortessa X-20 (BD Biosciences, San Jose, Calif.). […] However, a more stringent cutoff, such as 3%, could be used to separate out Ag+ TCRs that behave better in the binding assay. Ag+ TCRs were determined by Next Generation Sequencing.

[2] = molecular target: T2, soluble HLA-A2 MAGE-A4 (…) tetramer (human); assay: flow cytometry tetramer staining; % with MAGE-A4 tetramer divided by % with MAGE-A8 tetramer (reference)
T2 construct: Bought tetramer reagent; also called MAGE-A4/HLA tetramer reagent; HLA-A02:01 MAGE-A4 tetramer
Description: as §1

[3] = molecular target: T3, MAGE-A4 peptide on HLA-A*02:01 (human); assay: multimer staining
T3 peptide: GVYDGREHTV

[4] = molecular target: T4, MAGE-A8 peptide on HLA-A*02:01 (human); assay: multimer staining
T4 peptide: GLYDGREHSV

[5] = molecular target: T2, soluble HLA-A2 MAGE-A4 (…) tetramer; assay: flow cytometry, HLA-A2 MAGE-A4 (…) tetramer staining of CHO cells transfected with the TCR
Description: as §1

- % tetramer in Ag+ gate (MAGE-A8) [1]: 60.6%
- MAGE-A4/MAGE-A8 (ratio of % tetramer in Ag+ gate) [2]: 1.23
- binding result [3]: recognises
- binding result [4]: recognises
- % tetramer in Ag+ gate (MAGE-A4) [5]: 74.8%
B1: PN45546 (TCR, V domains shown)
V domain 1: AQTVTQSQPEMSVQEAETVTLSCTYDTSESDYYLFWYKQPPSRQMILVIRQEAYKQQNATENRFSVNFQKAAKSFSLKISDSQLGDAAMYFCAYRSGAGGTSYGKLTFGQGTILTVHP
V domain 2: DAGVTQSPTHLIKTRGQQVTLRCSPISGHKSVSWYQQVLGQGPQFIFQYYEKEERGRGNFPDRFSARQFPNYSSELNVNALLLGDSALYLCASSIRDTYGYTFGSGTRLTVV
notes: full-length chains on transfected CHO cells; also called TCR No. 53
